Source: a protein production outcome set (Wang et al. 2014)

Test: label from the status in PepcDB records

Sequence	protein production
MCEGRRAAFQAVDNCSSGNALTSKCGEKEAGVAGDAATSPKGLTWDPAQCFYSPACNAENITSKNRSPALLSRPHAQPGESERLITVLSNRDRKASPGAAGDSGLGGASPSGRGRDGTRGWGENWLPPPAAPQATSACSGAGSGAVGAARPCSSRELAVVGGGGDASGGCVGCRAGDRTAAPSSRCPEPTWSNCSEATAPAHTGEEAAVAAVAAAPAMLCYVTRPDAVLMEVEVEAKANGEDCLNQVCRRLGIIEVDYFGLQFTGSKGESLWLNLRNRISQQMDGLAPYRLKLRVKFFVEPHLILQEQTRHIFFLHIKESLLAGHLQCSPEQAVELSALLAQTKFGDYNQNTAQYSYEDLCEKELSSSTLNSIVGKHKELEGISQASAEYQVLQIVSAMENYGIEWHAVRDSEGQKLLIGVGPEGISICKEDFSPINRIAYPVVQMATQSGKNVYLTVTKESGNSIVLLFKMISTRAASGLYRAITETHAFYRCDTVTSAVMMQYSRDLKGHLASLFLNENINLGKKYVFDIKRTSKEVYDHARRALYNAGVVDLVSRNDQSPPSSPLKSSDSSMSCSSCEGLSCQQTRVLQEKLRKLKEAMLCMVCCEEEINSTFCPCGHTVCCESCAAQLQSCPVCRSRVEHVQHVYLPTHTSLLNLTVI	failed
MIDVPFLKNVTLKKENIPSFSAYPYCLPAIRTLQSLAFHPNVTFIIGENGTGKSTLLEGIAIALGFNAEGGTKNFRFSTNDSHSSLHEYLRISKSFNTPSDGFFLRAESFYNVASYIDEIDADLEARGNPVIDSYGGISLHEQSHGESFFSLFMNRFSGQGLYILDEPEAALSPMRQLSMLIRMHELAEQGSQFVIATHSPILMAYPESTIYSLTQEGIQESALEDTEHYQTTKLFFENRDRLFHHLFNSLEHHHHHH	not failed
MHALIVVAHHHPRSLTHALAARIAEGVVRAGHSAETADLAAEGFEPRFGLADHAVHRGQASPPADVLAEQARIDRADTLVLVYPIYWWSMPALLKGWIDRVFSNGWAFDYSIGGDLRKKLQRLRVVLVGVGGADAGTFERHGYAGAMRTQIDHGIFDYCGARVVRSELLLESESADPIRHLDQALHIGSQLFAARGAQGAAQAQPLEA	failed
ECPAVVAVVARGSEQNLQIRPARYSEESPWTSNGFEEKNFRSFFGRMEKHYRESTGESLMKDVYVMGLNNIEYPASLPLSSEGSSAIELGTSISSGRDNVISAIDRFESATGCTPKYLLAGYSQGVLIVDGYEEELIARDQYLGTLHIANPAQQVDDPTLVGHEVTTGGLASSVEPVEDNPFKVSYCLPGDIVCDRSFEQFSAAGSSIAAAQLSTGNIRPGRVHVQYFVTTQPWDEQIFDEVASWIEAA	failed
MICTPKVGLNNQLTKVQFFMTKYNFLFKQQVIEFYLQNDKNSSLTRRHFQLAETTLERWINQFNHSGINGLALLGKKRNYSPEFKLNVIQAVKNGKFSAEAACLHFGIANSGVVSQWLQAFEKQGINGLIPKPKGRPTMKLQYPKMPPKPKTREEELELENLRLRAENAILKKLQELNQQKMQKKPLSLEHHHHHH	failed
MRQFKTESKKLLDLMINSIYTNKEIFLRELISNASDAVDKLNFKSLQDPSVKIDQGDLAIRVSFDKDARTITISDNGIGMTAEELERNLGTIAHSGSEEFKTENAEQQGSDVDIIGQFGVGFYSAFMVASHVKVVSRAYGEDVAHVWESDGLEGYTIEDGERAEHGTDVILTLRENEKLDADGEAETYDRFLTEWGLKSLIQQYSNYVRYPIQMMVSKSRQKPKPEDAGDDYKPEYEDYQELETVNSMTPIWKKRSSDVEQKDYDEFYKSTFHDFDDPARTISFHAEGTLEYDALLFVPGRAPFDLYSKDYEKGLSLYSSNVLIMEKCDDLLPDYYNFVRGVVDSADVSLNISRETLQQNRQLKAIAKRVEKKITADLEDMRDNDREAYEKFFENFGRGLKYGIYSSYGMKADELADLLLFWSAKEQKMITLAEYAKGMPEDQKAIYYAAGDSRERLAKMPVVKGVLDRGYDVLLLTQDVDEFTFQAMREYVAADMPKIYEDDAAREAAEKAVADGAEPEVEDRHLELKNVATGDLDLATEDEKKEAEDATKENEDLFSAMKEALGDKVEKVAVSARLTDAPACITTEGPLSLEMEKVLQKGPEGAPDGMPKSQRVLELNAKHPVFDKLVAAQKAGDADKIKQYSGLLYDQALLVEGILPEDPVAFAAAVCNLM	failed
MNLRGILPFAHDTLRKVVRSGDYVVDATCGNGHDTLLLAELVGINGHVLGFDIQQLAIDATNTRLENAGVSSQVELVCASHARIPEYTSKPVRAAIFNLGYLPGGDKEITTTADSTLESIGHLMELLEVGGVIILVIYHGHPAGKQEKDAVMTFCEAIPQQDFHVLSYNFINQKNDAPFVIIIEKRKPRQSLEHHHHHH	not failed
MAMNGTITTWFKDKGFGFIKDENGDNRYFHVIKVANPDLIKKDAAVTFEPTTNNKGLSAYAVKVVPESKYIYIAGERLKLTSIKSYLVYSEEVPADTRIDKENTVLSVGVLMNSIRPKSVAEPDEIRSLKKLAITTFQGTTLIFSEDEIDVDATVKLLKVLEHHHHHH	not failed
MEQRPYSLCLLRLSALGDITHVLPLVRTLQRERPQARLHWIIDTMGSKLMDGLDGIHFHVYDKHTGLRGMRALRAELTPLGHFDALLHMQVSLRANLLSAFVPAQRRIGYDHNRSKDLHGLFINERIPDNPGIHVLDAIGSFCEPLGLVQREVRWDLPVSEEARAWAWAQWNNDGRPVLMISPCSSHTHRNWQAKRYAAVAEHASAQGWRIVLCGGRSTLERQTADTILAQTQVPLLDMVGKDTLKQLPALLERADLVMTPDSGPMHIANALGKKVLGLHAASNPHRSGPYSDLRYCVNRYDAAAHKYLGKPSNMLKWGTKIESNGVMDLVTVEDAIAAFERYRADYAHH	failed
MSYGLIIVLMIILGIGLWHTKKYHRAVVNQVAHVWITKNAFEHTALGMAIVSPDCRFLKVNRAYGEITGYTRPELLKMAVKELTHPEDQEKDTPYLQEVFAGNIHSFTTVKRYIHKNGSTIWVRSTISAVRTERGNLKYFVLEHHHHHH	failed
MSVLDISIIIANYNTEEFLRNCLNSIKSTVKNVKYEVIVTDNNSKDDSVTMIKNEFPWVKLIESKINGGFAYANNLAIKESSGKYIFLLNTDTVLLKDVIEKMVNYMDENKDVGLLGPKLLNRDMSHQTSVSGFPSFKREFYHIYKLKNILKIPILKKIIVAMSGKIGSKDVEQYMMNFKSIDEPREVQVLVGAALLVRRNVIDKIGMLDERYFMYYEEIDFCYQANKAGFKAVYYPNGEIIHYIGQAATKSRILEHHHHHH	not failed
MDVMRSVLGMVVLLTIAFLLSVNKKKISLRTVGAALVLQVVIGGIMLWLPPGRWVAEKVAFGVHKVMAYSDAGSAFIFGSLVGPKMDTLFDGAGFIFGFRVLPAIIFVTALVSILYYIGVMGILIRILGGIFQKALNISKIESFVAVTTIFLGQNEIPAIVKPFIDRLNRNELFTAICSGMASIAGSTMIGYAALGVPVEYLLAASLMAIPGGILFARLLSPATESSQVSFNNLSFTETPPKSIIEAAATGAMTGLKIAAGVATVVMAFVAIIALINGIIGGVGGWFGFEHASLESILGYLLAPLAWVMGVDWSDANLAGSLIGQKLAINEFVAYLNFSPYLQTAGTLDAKTVAIISFALCGFANFGSIGVVVGAFSAVAPHRAPEIAQLGLRALAAATLSNLMSATIAGFFIGLA	failed
LYATLSGVSLALADSADRRILLQTVCDVCVREAGFEMAWVGLLDADEKRVEVAALSRGERASMPGELPGHAEDAQAPGPVSRALRSRAAQVSNDAQSDPALKPWHGALSRQGIRSLLVVPLLVRQQVAGALALHAGEEGFFDQSRRALFELMAREIGRGLERHDALERSHRAETELAFLAQ	failed
MVGSSETETKEHREAEERSSRESATATGKVSGKENELRPTYVYLLMMPENHNVDVQQTLQEQRKRNIKKARIEARLKLDQIRPTVVLENSRATKMMIEWGFTDFRKLQGSNLGNKKWICWVRKHCC	not failed
MVSLPRLASLLTTRLATLKPALKPATHLASLGAQVIAELVPGIRMSPNRRRILPANMGAGFIGAEIAMWWALSPSLLPKPWWVTAANLAVLQAVGHAAATGIHSILPRTNRRVSRKIYNATHIATGAITLTTTVVGLIRHRTQIRLIGQKNFGPKETIAGISVGTLGYGALLITGELTQHSINEVKLLIERFLPPWISFIAAVSVITLTTLTLADRVLLRRILHNSAIQAAHLNRMVFPGTEQPWEPERSGSPWSYEKWGAVGSQGRAVLSGGPRKDDIITVTRLSDTETHEPIRIFIGMVPGRSLSDQVDLVIHEMRRTGALRRDHIVINNSTGTGWITDWSAHTFEFLTGGNCVTISMQYSYLPSALSWYKDNDGPINAARMLIDAVLHELDQLPTGSRPKLFLAGESLGAYGLAEVWGDVEKLLGTADGVLLSGAPRFSDAMNALRTRRDASSSERLPVIDSGRHIRFAGEPEHLDMPATWQFPRMIVAQHASDPIVWWNAELFIRRPEWLKTPKQDHQDVFPRLRWMPFVTGWQVALDLFTSTSVPGGHGHNYHEEFIDYWAALLDREVTPELRHSIAYWIRANHIKR	failed
ASVVLDFLTSDDFPAVAELGAAIWHKHFIGMISREQIDYMVSSRYTPQRLGRYLDAPDRWFRLLRVDGRPVGYCSYALTGQPGEMKLEQLYLLEEMRGWGLGGRMMDEAEAAARALGCATLMLTVNRHNAGAIAVYQKRGFAVREEVVADIGNGFVMDDYMMEKLLSR	failed
MEAETKTLPLENASILSEGSLQEGHRLWIGNLDPKITEYHLLKLLQKFGKVKQFDFLFHKSGALEGQPRGYCFVNFETKQEAEQAIQCLNGKLALSKKLVVRWAHAQVKRYDHNKNDKILPISLEPSSSTEPTQSNLSVTAKIKAIEAKLKMMAENPDAEYPAAPVYSYFKPPDKKRTTPYSRTAWKSRR	failed
MDHHAQHHPRSHACVLPNGLRLHLAHDPAASRAAAWLRVAAGSHDEPSAHPGLAHFLEHLSFLGGAAFPGDERLMPWLQVRGGQVNASTLGKTTDYFFEVTAEHLGAGLARLIDMLARPLLDIDAQRREREVLEAEYLARSADEQTLIDAALALGLPAGHPLRRFAAGRRDSLALESDAFQRALREFHAAHYHAGNCQLWLQGPQTLDELERLAQRACADLPGRAPGASPPPPPLLPFACEALALRLPGPPRLVLGFALDALRGADEQTLLAFAELLGDRSPGGLLAALGEQGLGESVALRVVHRDARQALLALTFELFDGSAAAALEAAFFDWLGALRDDAASLLAARRPLLAEPTAPLERLRQRVLGLPAEIRPACLDALRADRCLRLHLDSELDGAEARWSAGFRLSVAPVAAAPPLAAQRHAWRFELPLPPSAAAEGALFLRWRFPGVPARSRFLALRQALRPLCGQARLGGVEMGLEALGEDWSLSLLGPRDRLEAAVRPALARLLAAPPDWRANGERLSSAERRRSATGLPIRQLLDALPGLLGEPLAEVDDWRRTRWDALVMQAAMPDPRWMPGQAAGERLEPLPPRPGRHRRELAVDGESALLLFCPLPTQEVPMEAAWRLLARLHEPAFQRRLRDELQLGYALFCGFREVGARRGLLFAAQSPRACPARLLEHMETFLQRSAEALAQLPARRLAGLRKALADDLRRAPGSFAERARRAWAEHLGGGAGRSRLLAEAALGLSGDDLLAAQARLLEARGGWWVLSSRR	failed
